What all share (experiment): SPR; Biacore 3000, CM5 chip; rhTLR2, rhTLR4/MD2 and rhTLR4 amine-coupled (4.0, 4.7, 4.0 kRU); Wnt5a or Wnt3a injected at 25-100 nM for 2 min at 30 ul/min in HBS-P (10 mM HEPES, 0.15 M NaCl, 0.005% P20, pH 7.4) with ZnCl2 and CaCl2; Req from a 1:1 fit plotted against concentration and fit to a one-site hyperbola (steady-state KD)
Details in all cases: both partners purified

The target of one assay is T1, rhTLR4 (human, UniProt O00206 24-631).
T1 construct: toll-like receptor 4, recombinant human protein from R&D Systems; No catalogue number or construct limits are printed; also called rhTLR4-his; source: bought: R&D Systems

Another assay deals with T2, rhTLR4/MD2 (human, UniProt O00206 24-631; Q9Y6Y9 19-160).
T2 construct: toll-like receptor 4 in the recombinant human TLR4/MD2 complex from R&D Systems; MD2 (lymphocyte antigen 96) in the recombinant human TLR4/MD2 complex from R&D Systems; Bought as a preformed complex; No catalogue number, tags or construct limits are printed; source: bought: R&D Systems

Another assay deals with T3, rhTLR2 (human, UniProt O60603 21-588).
T3 construct: toll-like receptor 2, recombinant human protein from R&D Systems; No catalogue number, tags or construct limits are printed; source: bought: R&D Systems

Broadly, the Kd is a measure of binding affinity in units of concentration. Low values mean tighter binding, high ones weaker binding.

T3 sequence (O60603 21-588): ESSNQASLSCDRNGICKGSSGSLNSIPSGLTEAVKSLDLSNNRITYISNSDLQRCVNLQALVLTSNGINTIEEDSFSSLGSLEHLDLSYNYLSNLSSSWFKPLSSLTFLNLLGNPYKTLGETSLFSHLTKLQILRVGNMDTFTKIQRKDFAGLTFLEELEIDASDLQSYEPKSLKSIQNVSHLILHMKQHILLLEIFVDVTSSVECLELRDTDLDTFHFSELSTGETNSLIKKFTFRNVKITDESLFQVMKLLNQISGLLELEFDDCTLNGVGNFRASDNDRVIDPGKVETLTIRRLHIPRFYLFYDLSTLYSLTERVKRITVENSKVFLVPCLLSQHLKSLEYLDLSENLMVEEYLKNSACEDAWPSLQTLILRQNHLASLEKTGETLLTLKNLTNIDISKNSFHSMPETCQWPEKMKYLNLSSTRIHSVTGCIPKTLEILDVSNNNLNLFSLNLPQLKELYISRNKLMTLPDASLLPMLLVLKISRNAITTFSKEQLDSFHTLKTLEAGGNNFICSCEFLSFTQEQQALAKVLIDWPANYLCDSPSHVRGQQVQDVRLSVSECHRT
T1 sequence (O00206 24-631): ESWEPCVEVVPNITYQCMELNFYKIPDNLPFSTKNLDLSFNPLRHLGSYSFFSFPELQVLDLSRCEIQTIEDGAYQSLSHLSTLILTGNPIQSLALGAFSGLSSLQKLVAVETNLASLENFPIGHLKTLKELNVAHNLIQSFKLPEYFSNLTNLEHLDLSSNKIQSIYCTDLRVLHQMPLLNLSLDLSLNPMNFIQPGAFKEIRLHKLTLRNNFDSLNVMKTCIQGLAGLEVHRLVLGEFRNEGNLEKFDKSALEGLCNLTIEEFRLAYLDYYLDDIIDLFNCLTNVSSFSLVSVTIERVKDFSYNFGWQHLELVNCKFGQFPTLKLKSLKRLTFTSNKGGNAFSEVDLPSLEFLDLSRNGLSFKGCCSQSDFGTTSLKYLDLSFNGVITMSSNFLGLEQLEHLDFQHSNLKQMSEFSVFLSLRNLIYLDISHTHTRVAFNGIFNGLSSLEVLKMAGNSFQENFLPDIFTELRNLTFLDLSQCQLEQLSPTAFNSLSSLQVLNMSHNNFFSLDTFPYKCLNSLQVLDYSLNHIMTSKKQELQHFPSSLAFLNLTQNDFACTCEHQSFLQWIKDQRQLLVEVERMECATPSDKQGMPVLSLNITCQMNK
T2 sequence (O00206 24-631, chain 1 of 2): as the sequence (O00206 24-631) above
T2 sequence (Q9Y6Y9 19-160, chain 2 of 2): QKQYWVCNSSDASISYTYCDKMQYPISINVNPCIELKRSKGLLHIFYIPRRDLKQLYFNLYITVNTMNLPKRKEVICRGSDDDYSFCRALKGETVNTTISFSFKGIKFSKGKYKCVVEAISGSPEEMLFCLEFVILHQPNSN

B1: recombinant human/mouse (rh/m)Wnt5a (ligand, UniProt P41221 62-380, looked up)
chain: IIGAQPLCSQLAGLSQGQKKLCHLYQDHMQYIGEGAKTGIKECQYQFRHRRWNCSTVDNTSVFGRVMQIGSRETAFTYAVSAAGVVNAMSRACREGELSTCGCSRAARPKDLPRDWLWGGCGDNIDYGYRFAKEFVDARERERIHAKGSYESARILMNLHNNEAGRRTVYNLADVACKCHGVSGSCSLKTCWLQLADFRKVGDALKEKYDSAAAMRLNSRGKLVQVNSRFNSPTTQDLVYIDPSPDYCVRNESTGSLGTQGRLCNKTSEGMDGCELMCCGRGYDQFKTVQTERCHCKFHWCCYVKCKKCTEIVDQFVCK
notes: Wnt5a, recombinant human/mouse protein from R&D Systems, molecular weight 38,000; Lyophilized from PBS, EDTA and CHAPS; No catalogue number is printed; also called rWnt5a; source: bought: R&D Systems
On to B1, for which the Kd with rhTLR4 amounted to 44.5 nM; with rhTLR4/MD2, 35.5 nM; with rhTLR2 it was 26.5 nM.

(Values after paper PMC6509336, “Wnt5a is a TLR2/4-ligand that induces tolerance in human myeloid cells” (Communications Biology, 2019).)
